Here are results for 47 substances from the array DNA melting data of Ke et al..

As a reminder, the Tm is the temperature at which the thermal transition is half complete.

This data set can be described thus: melting temperature; melt of duplexes. As to conditions: sodium 0.0675 M; strand 1 µM.
“CGACGTGCATCATGTGCTG+CAGCACATCGAGCACGTCG ((((((((...((((((((+))))))))...))))))))”: the midpoint of thermal melting (Tm) was found to be 48.9 °C. As for “CGACGTGCAGAATGTGCTG+CAGCACATGGAGCACGTCG ((((((((...((((((((+))))))))...))))))))”, the figure is 55.6 °C. Next, “CGACGTGCTTCATGTGCTG+CAGCACATCGTGCACGTCG ((((((((...((((((((+))))))))...))))))))”: 43.2 °C; “CGACGTGCACTATGTGCTG+CAGCACATCTGGCACGTCG ((((((((...((((((((+))))))))...))))))))”: 44.2 °C; “CGACGTGCAGAATGTGCTG+CAGCACATGCCGCACGTCG ((((((((.(.((((((((+)))))))).).))))))))”: 54.6 °C. Next, “CGACGTGCGTTATGTGCTG+CAGCACATTGCGCACGTCG (((((((((..((((((((+))))))))..)))))))))”: 55.7 °C; “CGACGTGCATAATGTGCTG+CAGCACATTATGCACGTCG (((((((((((((((((((+)))))))))))))))))))”: 61.8 °C. As to “CGACGTGCGTTATGTGCTG+CAGCACATGTAGCACGTCG ((((((((...((((((((+))))))))...))))))))”, the melting temperature (Tm) is 53.6 °C.

As for “CGACGTGCATTATGTGCTG+CAGCACATTAAGCACGTCG ((((((((.(.((((((((+)))))))).).))))))))”, the Tm amounted to 50.3 °C. As for “CGACGTGCACTATGTGCTG+CAGCACATAGCGCACGTCG ((((((((.((((((((((+)))))))))).))))))))”, the figure is 54.8 °C; as for “CGACGTGCAGTATGTGCTG+CAGCACATCACGCACGTCG ((((((((...((((((((+))))))))...))))))))”, 50.9 °C. As to “CGACGTGCCGCATGTGCTG+CAGCACATGTGGCACGTCG (((((((((.(((((((((+))))))))).)))))))))”, the Tm was found to be 62.9 °C. As for “CGACGTGCGCTATGTGCTG+CAGCACATCCAGCACGTCG ((((((((...((((((((+))))))))...))))))))”, the Tm stood at 49.8 °C. As for “CGACGTGCGCCATGTGCTG+CAGCACATACGGCACGTCG ((((((((...((((((((+))))))))...))))))))”, the figure is 46.6 °C; as for “CGACGTGCGTGATGTGCTG+CAGCACATTTTGCACGTCG ((((((((...((((((((+))))))))...))))))))”, 50.7 °C; as for “CGACGTGCACAATGTGCTG+CAGCACATGTAGCACGTCG ((((((((...((((((((+))))))))...))))))))”, 50.7 °C. With “CGACGTGCAGGATGTGCTG+CAGCACATGGCGCACGTCG ((((((((...((((((((+))))))))...))))))))”, the Tm came out at 49.9 °C. As for “CGACGTGCTGAATGTGCTG+CAGCACATCGTGCACGTCG ((((((((...((((((((+))))))))...))))))))”, the Tm came to 46.3 °C. Next, “CGACGTGCCACATGTGCTG+CAGCACATGGTGCACGTCG ((((((((..(((((((((+)))))))))..))))))))”: 53.2 °C; “CGACGTGCGATATGTGCTG+CAGCACATTCTGCACGTCG ((((((((...((((((((+))))))))...))))))))”: 51.5 °C. With “CGACGTGCATGATGTGCTG+CAGCACATTACGCACGTCG ((((((((.(.((((((((+)))))))).).))))))))”, the Tm was 50.6 °C. As for “CGACGTGCCATATGTGCTG+CAGCACATAACGCACGTCG ((((((((..(((((((((+)))))))))..))))))))”, the figure is 49.1 °C; as for “CGACGTGCAGGATGTGCTG+CAGCACATGATGCACGTCG (((((((((..((((((((+))))))))..)))))))))”, 55 °C. As for “CGACGTGCACAATGTGCTG+CAGCACATTGAGCACGTCG ((((((((.((((((((((+)))))))))).))))))))”, the figure is 56.9 °C; as for “CGACGTGCGCGATGTGCTG+CAGCACATGCAGCACGTCG ((((((((...((((((((+))))))))...))))))))”, 55.8 °C. Next, “CGACGTGCTAAATGTGCTG+CAGCACATGTAGCACGTCG ((((((((((.((((((((+)))))))).))))))))))”: 55.7 °C; “CGACGTGCCGGATGTGCTG+CAGCACATATAGCACGTCG ((((((((...((((((((+))))))))...))))))))”: 49.9 °C; “CGACGTGCGTCATGTGCTG+CAGCACATTCAGCACGTCG ((((((((...((((((((+))))))))...))))))))”: 51.3 °C.

Regarding “CGACGTGCATAATGTGCTG+CAGCACATACAGCACGTCG ((((((((...((((((((+))))))))...))))))))”, the Tm was determined as 48.2 °C. Next, “CGACGTGCATTATGTGCTG+CAGCACATTAGGCACGTCG ((((((((.(.((((((((+)))))))).).))))))))”: 51.9 °C; “CGACGTGCTTGATGTGCTG+CAGCACATACCGCACGTCG ((((((((...((((((((+))))))))...))))))))”: 48.4 °C; “CGACGTGCCTGATGTGCTG+CAGCACATTTCGCACGTCG ((((((((...((((((((+))))))))...))))))))”: 48.2 °C.

In the case of “CGACGTGCATAATGTGCTG+CAGCACATCTGGCACGTCG ((((((((...((((((((+))))))))...))))))))”, the melting temperature (Tm) amounted to 49.3 °C. Turning to “CGACGTGCTAGATGTGCTG+CAGCACATTACGCACGTCG ((((((((...((((((((+))))))))...))))))))”, the Tm was determined as 50.1 °C. “CGACGTGCACCATGTGCTG+CAGCACATCGGGCACGTCG ((((((((.(.((((((((+)))))))).).))))))))”: the Tm is 49.4 °C. For “CGACGTGCAAGATGTGCTG+CAGCACATTCGGCACGTCG ((((((((...((((((((+))))))))...))))))))”, the Tm was determined as 51.3 °C. On to “CGACGTGCCAAATGTGCTG+CAGCACATTACGCACGTCG ((((((((..(((((((((+)))))))))..))))))))”, for which the Tm was found to be 50.5 °C. “CGACGTGCGATATGTGCTG+CAGCACATGCTGCACGTCG ((((((((...((((((((+))))))))...))))))))”: the melting temperature (Tm) amounted to 49.8 °C. As for “CGACGTGCCATATGTGCTG+CAGCACATGACGCACGTCG ((((((((...((((((((+))))))))...))))))))”, the figure is 45.5 °C; as for “CGACGTGCTCTATGTGCTG+CAGCACATAGTGCACGTCG ((((((((.((((((((((+)))))))))).))))))))”, 54.1 °C; as for “CGACGTGCGGCATGTGCTG+CAGCACATCTCGCACGTCG (((((((((..((((((((+))))))))..)))))))))”, 53.4 °C. As for “CGACGTGCGCAATGTGCTG+CAGCACATCACGCACGTCG (((((((((..((((((((+))))))))..)))))))))”, the figure is 54 °C. As for “CGACGTGCCCGATGTGCTG+CAGCACATAAGGCACGTCG (((((((((..((((((((+))))))))..)))))))))”, the figure is 54.5 °C. On to “CGACGTGCTGGATGTGCTG+CAGCACATTCAGCACGTCG ((((((((((.((((((((+)))))))).))))))))))”, for which the Tm was found to be 60 °C. As for “CGACGTGCAGCATGTGCTG+CAGCACATGCAGCACGTCG ((((((((.((((((((((+)))))))))).))))))))”, the Tm turned out to be 60.8 °C. With “CGACGTGCTAGATGTGCTG+CAGCACATAATGCACGTCG ((((((((...((((((((+))))))))...))))))))”, the Tm amounted to 50.6 °C. Next, “CGACGTGCCGAATGTGCTG+CAGCACATTGGGCACGTCG (((((((((.(((((((((+))))))))).)))))))))”: 59 °C.
